No end group written: not given here.

In the test the target is Prostate-specific membrane antigen (PSMA) (human), Q04609. In words: apparent Kd, flow cytometry, FAM-labeled peptide on PSMA-positive LNCaP cells, 4 C. As to conditions: remark: other sources report otherwise. (Flow cytometry measures light scatter and fluorescence of single cells or particles in a stream.)
Sequence of Prostate-specific membrane antigen (PSMA) (human), Q04609 (Q04609 whole entry): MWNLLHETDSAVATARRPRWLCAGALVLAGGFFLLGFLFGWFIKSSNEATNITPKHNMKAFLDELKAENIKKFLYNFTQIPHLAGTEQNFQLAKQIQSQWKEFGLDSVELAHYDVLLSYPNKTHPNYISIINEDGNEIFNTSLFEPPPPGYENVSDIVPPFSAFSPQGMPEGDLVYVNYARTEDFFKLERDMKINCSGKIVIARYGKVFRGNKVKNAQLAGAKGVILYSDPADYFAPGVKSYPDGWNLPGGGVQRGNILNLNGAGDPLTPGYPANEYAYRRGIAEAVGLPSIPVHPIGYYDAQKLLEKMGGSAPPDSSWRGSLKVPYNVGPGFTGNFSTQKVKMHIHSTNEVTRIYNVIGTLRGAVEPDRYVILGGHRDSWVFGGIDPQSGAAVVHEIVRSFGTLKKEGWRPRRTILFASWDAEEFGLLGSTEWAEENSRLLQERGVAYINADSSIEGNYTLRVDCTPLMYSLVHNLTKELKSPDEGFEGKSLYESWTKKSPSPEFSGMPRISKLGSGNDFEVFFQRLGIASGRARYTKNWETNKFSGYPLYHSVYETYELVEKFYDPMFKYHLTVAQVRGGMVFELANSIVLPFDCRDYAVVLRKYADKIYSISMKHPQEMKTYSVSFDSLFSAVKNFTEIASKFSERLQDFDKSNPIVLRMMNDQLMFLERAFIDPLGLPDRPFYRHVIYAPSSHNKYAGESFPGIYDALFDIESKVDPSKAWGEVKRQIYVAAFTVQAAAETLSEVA

In the case of WQPDTAHHWATL (also: FAM label, position not given here) [FAM-labeled WQP peptide …], the Kd stood at 23.6 µM.
